Patent publication US20030219717A1, “Fluorophore complementation products” (priority 2002, published 2003)
Each block holds one compound with its values, some of them ahead of it.

What was measured:
[1] = molecular target: FKBP / FRB (FKBP binding part of FRAP) interaction (Homo sapiens, UniProt P42345+P62942); assay: Rapamycin-induced E[F64L]YFP fragment complementation (EYFP fluorescence) in stably transfected CHO-hIR cells; format: cell-based; details: CHO-hIR [PS1767+PS1768], 1 μM rapamycin
Protocol: Probes were co-transfected in pairs into CHO-hIR cells (supra), PS1769 with PS1771 and PS1767 with PS1768, using the transfection agent FuGENE™ 6 (Boehringer Mannheim Corp, USA) according to the method recommended by the suppliers. Cells were cultured in growth medium (HAM's F12 nutrient mix with Glutamax-1, 10% foetal bovine serum (FBS), 100 μg penicillin-streptomycin mixture ml^−1 (GibcoBRL, supplied by Life Technologies, Denmark)). Transfected cells were cultured in this medium, with the addition of two selection agents appropriate to the plasmids being used, being 1 mg/ml zeocin plus 0.5 mg/mlG418 sulphate. […]
After 10 to 12 days culture in the continuous presence of the selection agents, the resulting cell lines were judged to be stably transfected. For fluorescence microscopy, aliquots of cells were transferred to Lab-Tek chambered cover glasses (Nalge Nunc International, Naperville USA) and allowed to adhere for at least 24 hours to reach about 80% confluence. Images were routinely collected using a Nikon Diaphot 300 inverted fluorescence microscope (Nikon Corp., Tokyo, Japan) using ×20 (dry) and/or ×40 (oil immersion) objectives and coupled to a Orca ER charged coupled device (CCD) camera (Hammamatsu Photonics K. K., Hammamatsu City, Japan). […]
This is easily accomplished through fluorescence activated cell sorting (FACS) methods. […]

[2] = molecular target: FKBP-CtermEYFP173 (human; Aequorea victoria) (UniProt P62942); assay: cell-based or functional assay
[3] = molecular target: FRB-CtermEYFP173 (human; Aequorea victoria) (UniProt P42345); assay: cell-based or functional assay

Chain of FKBP-CtermEYFP173 (human; Aequorea victoria) (P62942 other isoform, or with tags, fused parts or gaps, form in doubt): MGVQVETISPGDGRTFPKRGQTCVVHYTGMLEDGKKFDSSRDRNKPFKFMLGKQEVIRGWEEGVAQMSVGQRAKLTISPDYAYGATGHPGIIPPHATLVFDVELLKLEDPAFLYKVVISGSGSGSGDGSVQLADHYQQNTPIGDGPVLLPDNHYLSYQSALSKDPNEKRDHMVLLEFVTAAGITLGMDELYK

Proportion of cells with significantly greater EYFP fluorescence ([1]; after 4 hours): approximately 40%
Proportion of the cell population encompassed by the EYFP fluorescence response ([1]; after 16 hours): approximately 70%
Compound: CO[C@H]1C[C@@H]2CC[C@@H](C)[C@@](O)(O2)C(=O)C(=O)N2CCCC[C@H]2C(=O)O[C@H]([C@H](C)C[C@@H]2CC[C@@H](O)[C@H](OC)C2)CC(=O)[C@H](C)/C=C(\C)[C@@H](O)[C@@H](OC)C(=O)[C@H](C)C[C@H](C)/C=C/C=C/C=C/1C [rapamycin]

EC50 of FK506 against 100 nM rapamycin, EYFP fluorescence/cell, 'mid to low-green' FACS group [2]: 1200 nM
EC50 of rapamycin for EYFP fluorescence, 'black' FACS group, 7 and 30 hours [2]: 100 nM
EC50 of rapamycin for EYFP fluorescence, 'medium to low-green' FACS group, 7 and 30 hours [2]: 250 nM
half-time for development of fluorescence after 3 uM rapamycin [2]: 5 h
increase in EYFP fluorescence over the unstimulated value, 'black' FACS group [2]: > 20 fold
increase in EYFP fluorescence over the unstimulated value, 'medium to low-green' FACS group [2]: > 20 fold
proportion of cells with appreciable EYFP fluorescence before rapamycin (t=0) [2]: < 5%
proportion of cells with significantly greater EYFP fluorescence 4 hours after 1 uM rapamycin [2]: 40%
proportion of responding cells 16 hours after 1 uM rapamycin [2]: 70%
Compound: NtermE[F64L]YFP172-FRB (from UniProt P42345 2025-2114)

EC50 of FK506 against 100 nM rapamycin, EYFP fluorescence/cell, 'black' FACS group [3]: 1200 nM
Compound: NtermE[F64L]YFP172-FKBP (from UniProt P62942 1-108)
